The text below walks through data of paper PMC7997659, “Architecture and structural dynamics of the heteromeric GluK2/K5 kainate receptor” (eLife, 2021).

The chains are these.
B1: GluK2em (rat GluK2 cryo-EM expression construct) (receptor, UniProt P42260 32-908, looked up)
chain: TTHVLRFGGIFEYVESGPMGAEELAFRFAVNTINRNRTLLPNTTLTYDTQKINLYDSFEASKKACDQLSLGVAAIFGPSHSSSANAVQSICNALGVPHIQTRWKHQVSDNKDSFYVSLYPDFSSLSRAILDLVQFFKWKTVTVVYDDSTGLIRLQELIKAPSRYNLRLKIRQLPADTKDAKPLLKEMKRGKEFHVIFDCSHEMAAGILKQALAMGMMTEYYHYIFTTLDLFALDVEPYRYSGVNMTGFRILNTENTQVSSIIEKWSMERLQAPPKPDSGLLDGFMTTDAALMYDAVHVVSVAVQQFPQMTVSSLQCNRHKPWRFGTRFMSLIKEAHWEGLTGRITFNKTNGLRTDFDLDVISLKEEGLEKIGTWDPASGLNMTESQKGKPANITDSLSNRSLIVTTILEEPYVLFKKSDKPLYGNDRFEGYCIDLLRELSTILGFTYEIRLVEDGKYGAQDDVNGQWNGMVRELIDHKADLAVAPLAITYVREKVIDFSKPFMTLGISILYRKPNGTNPGVFSFLNPLSPDIWMYVLLAYLGVSVVLFVIARFSPYEWYNPHPSNPDSDVVENNFTLLNSFWFGVGALMQQGSELMPKALSTRIVGGIWWFFTLIIISSYTANLAAFLTVERMESPIDSADDLAKQTKIEYGAVEDGATMTFFKKSKISTYDKMWAFMSSRRQSVLVKSNEEGIQRVLTSDYAFLMESTTIEFVTQRNCNLTQIGGLIDSKGYGVGTPMGSPYRDKITIAILQLQEEGKLHMMKEKWWRGNGCPEEESKEASALGVQNIGGIFIVLAAGLVLSVFVAVGEFLYKSKKNAQLEKRSFCSAMVEELRMSLKCQRRLKHKPQAPVIVKTEEVINMHTFNDRRLPGKETMA
modifications: N-linked glycans at N67, N378, N412, N546
notes: signal peptide in the construct; rat GluK2 (GRIK2_RAT), full-length gene, RNA-edited at position 567 (I to V), with C576V and C595S; Two copies stand in the GluK2/K5em tetramer (B/D positions); No thrombin cleavage step is told in the purification; also called B/D subunits; source: HEK293S GnTI- cells, BacMam, co-expressed with GluK5em, purified (Strep-Tactin, 1D4 resin, Superose 6); HEK293T, …
B2: wild-type GluK5 (receptor)
chain: NPSCQVLSSLRMAAILDDQTVCGRGERLALALAREQINGIIEVPAKARVEVDIFELQRDSQYETTDTMCQILPKGVVSVLGPSSSPASASTVSHICGEKEIPHIKVGPEETPRLQYLRFASVSLYPSNEDVSLAVSRILKSFNYPSASLICAKAECLLRLEELVRGFLISKETLSVRMLDDSRDPTPLLKEIRDDKVSTIIIDANASISHLVLRKASELGMTSAFYKYILTTMDFPILHLDGIVEDSSNILGFSMFNTSHPFYPEFVRSLNMSWRENCEASTYPGPALSAALMFDAVHVVVSAVRELNRSQEIGVKPLACTSANIWPHGTSLMNYLRMVEYDGLTGRVEFNSKGQRTNYTLRILEKSRQGHREIGVWYSNRTLAMNATTLDINLSQTLANKTLVVTTILENPYVMRRPNFQALSGNERFEGFCVDMLRELAELLRFRYRLRLVEDGLYGAPEPNGSWTGMVGELINRKADLAVAAFTITAEREKVIDFSKPFMTLGISILYRVHMGRKPGYFSFLDPFSPAVWLFMLLAYLAVSCVLFLAARLSPYEWYNPHPCLRARPHILENQYTLGNSLWFPVGGFMQQGSEIMPRALSTRCVSGVWWAFTLIIISSYTANLAAFLTVQRMEVPVESADDLADQTNIEYGTIHAGSTMTFFQNSRYQTYQRMWNYMQSKQPSVFVKSTEEGIARVLNSRYAFLLESTMNEYHRRLNCNLTQIGGLLDTKGYGIGMPLGSPFRDEITLAILQLQENNRLEILKRKWWEGGRCPKEEDHRAKGLGMENIGGIFVVLICGLIIAVFVAVMEFIWSTRRSAESEEVSVCQEMLQELRHAVSCRKTSRSRRRRRPGGPSRALLSLRAVREMRLSNGKLYSAGAGGDAGAHGGPQRLLDDPGPPGGPRPQAPTPCTHVRVCQECRRIQALRASGAGAPPRGLGTPAEATSPPRPRPGPTGPRELTEHE
B3: GluK5em (rat GluK5 cryo-EM expression construct) (receptor)
chain: NPSCQVLSSLRMAAILDDQTVCGRGERLALALAREQINGIIEVPAKARVEVDIFELQRDSQYETTDTMCQILPKGVVSVLGPSSSPASASTVSHICGEKEIPHIKVGPEETPRLQYLRFASVSLYPSNEDVSLAVSRILKSFNYPSASLICAKAECLLRLEELVRGFLISKETLSVRMLDDSRDPTPLLKEIRDDKVSTIIIDANASISHLVLRKASELGMTSAFYKYILTTMDFPILHLDGIVEDSSNILGFSMFNTSHPFYPEFVRSLNMSWRENCEASTYPGPALSAALMFDAVHVVVSAVRELNRSQEIGVKPLACTSANIWPHGTSLMNYLRMVEYDGLTGRVEFNSKGQRTNYTLRILEKSRQGHREIGVWYSNRTLAMNATTLDINLSQTLANKTLVVTTILENPYVMRRPNFQALSGNERFEGFCVDMLRELAELLRFRYRLRLVEDGLYGAPEPNGSWTGMVGELINRKADLAVAAFTITAEREKVIDFSKPFMTLGISILYRVHMGRKPGYFSFLDPFSPAVWLFMLLAYLAVSVVLFLAARLSPYEWYNPHPSLRARPHILENQYTLGNSLWFPVGGFMQQGSEIMPRALSTRIVSGVWWAFTLIIISSYTANLAAFLTVQRMEVPVESADDLADQTNIEYGTIHAGSTMTFFQNSRYQTYQRMWNYMQSKQPSVFVKSTEEGIARVLNSRYAFLLESTMNEYHRRLNCNLTQIGGLLDTKGYGIGMPLGSPFRDEITLAILQLQENNRLEILKRKWWEGGRCPKEEDHRAKGLGMENIGGIFVVLIAGLIIAVFVAVMEFIYKSRAEAKRMK
modifications: N-linked glycans at N219, N271, N322, N372, N394
notes: signal peptide in the construct; rat GluK5 (GRIK5_RAT), from the full-length gene, truncated at position 827 after the M4 helix, four cysteines mutated; GluA2 'tail' ('A2 tail') added at the subunit C-terminus in place of the GluK5 C-terminus; GluK5 with point mutations and its C-terminus replaced by the GluA2 tail; Two copies stand in the GluK2/K5em tetramer (A/C positions); No thrombin cleavage …

Series [1] concerns the molecule itself. Description: cryo-EM structure; GluK2/K5em co-expressed and co-purified in DDM/CHS, 3.7 mg/mL, with 1 mM CNQX (antagonist-bound); full-length 5.3 Å, ATD layer 3.6 Å, LBD-TMD 4.2 Å.
In the next series the target is wild-type GluK2 (rat) (UniProt P42260).
For series [2], the target named is B1. Put plainly: cryo-EM structure; GluK2/K5em co-expressed and co-purified in DDM/CHS, 3.7 mg/mL, with 1 mM CNQX (antagonist-bound); full-length 5.3 Å, ATD layer 3.6 Å, LBD-TMD 4.2 Å. Conditions: both partners purified.

Take B1: in series [1], the binding result is “binds”.

Take B2: in the series with wild-type GluK2 (rat), the deactivation current decay after a 1 ms pulse of 1 mM L-Glu, outside-out patches of HEK293T cells co-transfected with wild-type GluK2 and GluK5; weighted τ is 23.6 ms; the deactivation current decay after a 1 ms pulse of 1 mM L-Glu, outside-out patches of HEK293T cells co-transfected with wild-type GluK2 and GluK5; τ3 (slow component) turned out to be 60 ms. On to B3, for which, in series [2], the “stoichiometry N” value was 1 GluK5 per GluK2 (printed as 2:2).

As usually defined, the stoichiometry N is the number of molecules, sites or subunits per partner or assembly.
